Here are results for four molecules from patent publication US20030092157, “Compositions, screening systems and methods for modulating HDL cholesterol and triglyceride levels” (published 2003).

In data set [1] the target is T1, LXRα/RXR heterodimer (expressed in Cos-1) (Homo sapiens? / Mus musculus?, UniProt Q13133;P28700 Q13133:1-447,P28700:1-467).
T1 sequence 1: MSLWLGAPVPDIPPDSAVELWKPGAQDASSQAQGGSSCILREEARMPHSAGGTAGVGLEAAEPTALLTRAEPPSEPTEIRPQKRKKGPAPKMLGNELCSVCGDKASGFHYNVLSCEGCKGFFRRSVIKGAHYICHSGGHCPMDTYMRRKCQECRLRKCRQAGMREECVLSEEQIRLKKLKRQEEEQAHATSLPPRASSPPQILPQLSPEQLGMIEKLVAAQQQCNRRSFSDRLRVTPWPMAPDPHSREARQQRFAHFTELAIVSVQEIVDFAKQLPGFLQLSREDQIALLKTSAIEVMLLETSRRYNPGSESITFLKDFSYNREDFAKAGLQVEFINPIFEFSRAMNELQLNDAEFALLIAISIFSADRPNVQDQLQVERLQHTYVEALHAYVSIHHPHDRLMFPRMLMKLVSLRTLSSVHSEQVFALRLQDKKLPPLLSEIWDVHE
T1 sequence 2: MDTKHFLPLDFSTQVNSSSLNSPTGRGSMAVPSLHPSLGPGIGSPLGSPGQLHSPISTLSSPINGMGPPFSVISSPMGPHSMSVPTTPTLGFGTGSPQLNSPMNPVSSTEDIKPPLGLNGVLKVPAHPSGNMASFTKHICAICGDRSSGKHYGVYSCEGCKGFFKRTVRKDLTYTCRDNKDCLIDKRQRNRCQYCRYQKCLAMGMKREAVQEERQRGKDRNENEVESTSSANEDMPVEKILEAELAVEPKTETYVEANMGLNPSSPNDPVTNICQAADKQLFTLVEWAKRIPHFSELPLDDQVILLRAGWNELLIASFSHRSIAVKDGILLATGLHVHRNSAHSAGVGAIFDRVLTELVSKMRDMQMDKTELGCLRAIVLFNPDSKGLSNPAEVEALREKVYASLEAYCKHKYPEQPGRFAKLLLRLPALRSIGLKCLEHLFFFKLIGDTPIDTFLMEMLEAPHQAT
In words: cell_activity; 3 copies, luciferase, 1 µM 22(R)-hydroxycholesterol. On the procedure:
(§1) FIG. 3 is a bar graph illustrating that the LXREs are functional for LXRα transactivation. Cos-1 cells were cotransfected with multiple copies of the putative LXREs in the reporter plasmid TKpGI3 and expression plasmids for LXRα and RXR. Cells were then treated for 48 h with 1 μM 22(R)-hydroxycholesterol. Luciferase activity was determined and plotted as fold activation relative to vehicle-treated cells.
(§2) Cells were transfected for 3 hours by lipofection using ExGen 500 (Euromedex) in OPTIMEM 1. Medium was then replaced by Dulbecco's Modified Eagle's Medium (DMEM) containing 0.2% fetal calf serum and cells were incubated for 48 hours. Cell extracts were prepared and assayed for luciferase activity as described(15). Twenty-four hours before transfection, HepG2 cells, HUH7 cells, CaCo2 cells and RK13 cells were plated in 24-well plates in DMEM supplemented with 10% fetal calf serum at 5×10⁴ cells/well. Transfection mixes contained 100 ng of tkpGI3 reporter vector or pGI3 containing an 8 kb fragment from ABC1 intron I (pGI3-8 kb) (FIG. 1). Cos-1 cells were plated in 24-well plates in DMEM supplemented with 10% fetal calf serum at 5×10⁴ cells/well. Transfection mixes contained 50 ng of reporter plasmid (tkpGI3) containing multiple copies of the putative LXREs and 25 ng of LXRα and RXR expression plasmids, in the presence of the internal control β-gal expression vector. […]

Data set [2] has as its target T1, LXRα/RXR heterodimer (expressed in …). Description: cell_activity; 3 copies, luciferase, 1 µM 22(R)-hydroxycholesterol; text's "2-fold and 6-fold, respectively". As to the method:
as §1, §2

In data set [3] the target is T2, LXRα/RXRα heterodimer (/ Mus musculus, UniProt Q13133;P28700 Q13133:1-447,P28700:1-467).
T2 sequence 1: T1 sequence 1
T2 sequence 2: T1 sequence 2
Description: competition; dose-dependent competition, 5-, 25-, 50-fold excess. The settings on record: tags: pCDNA3-LXRα and pSG5-mRXRα, TNT coupled transcription/translation system (Promega). On the procedure:
(§3) For FIG. 2A, HepG2 (liver), HuH7 (hepatoma), CaCo₂ (intestinal) and RK13 (kidney) cell lines were cotransfected with empty pGI3 vector or pGI3 containing an 8 kb fragment upstream of exon 2 of ABC1 intron 1 (pGI3-8 kb). Cells were then incubated for 48 hour. Luciferase activity was determined and plotted as fold activation relative to empty pGI3-transfected cells. The results of gel mobility shift assays in which LXRα and RXR were incubated as indicated with the radiolabeled probe corresponding to CYP7-LXRE are shown in FIG. 2B.
(§4) To investigate whether these DR4 were indeed able to bind LXR-RXR heterodimers, gel retardation assays were performed (FIG. 2B). […] As a control, the unlabeled LXRE previously described in ABC1 exon 1 (+4-LXRE) (10,11) also competed efficiently for binding. The signal was then competed with increasing quantities of each unlabeled putative LXRE.

For data set [4], the target named is T2, LXRα/RXRα heterodimer. In words: competition; competed efficiently for CYP7-LXRE probe. Particulars: tags: pCDNA3-LXRα and pSG5-mRXRα, TNT coupled transcription/translation system (Promega). As to the method: as §3, §4

B1: -4696 LXRE (ABC1 intron 1) (dsDNA)
DNA 1: GGATCACCTGAGGTCA
DNA 2: TGACCTCAGGTGATCC
As to B1, in data set [1], the activity was determined as 2 fold induction.

B2: -7670 LXRE (ABC1 intron 1) (dsDNA)
DNA 1: AGGTTACTGAAGGCCA
DNA 2: TGGCCTTCAGTAACCT
In data set [2], B2 came in with an activity of 6 fold induction.

B3: -7188 LXRE (ABC1 intron 1) (dsDNA)
DNA 1: AGATCACTTGAGGTCA
DNA 2: TGACCTCAAGTGATCT
Turning to B3, the binding result in data set [3] is given as “binds”.

B4: +4-LXRE (ABC1 exon 1/promoter) (dsDNA)
DNA 1: AGGTTACTATCGGTCA
DNA 2: TGACCGATAGTAACCT
For the molecule B4, the binding result in data set [4] is “binds”.
